Measurements: patent publication US20030143192A1

Target: human CCR3 (human) (UniProt P51677)
Test: cell-based or functional assay

human CCR3 (human), sequence (P51677 whole entry): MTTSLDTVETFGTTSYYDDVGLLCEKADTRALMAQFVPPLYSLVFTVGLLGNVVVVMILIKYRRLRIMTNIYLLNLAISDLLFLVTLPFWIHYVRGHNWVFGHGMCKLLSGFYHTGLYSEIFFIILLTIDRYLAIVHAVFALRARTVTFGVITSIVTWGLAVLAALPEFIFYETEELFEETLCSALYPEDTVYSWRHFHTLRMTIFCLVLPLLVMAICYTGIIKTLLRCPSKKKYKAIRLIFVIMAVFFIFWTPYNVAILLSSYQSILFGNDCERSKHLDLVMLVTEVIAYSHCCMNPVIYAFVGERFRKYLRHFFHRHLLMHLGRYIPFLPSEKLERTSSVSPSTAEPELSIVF

- reduction of 25 nM eotaxin-induced Ca^2+ flux in HOS-CCR3 cells by 100 nM antagonist: 35%
Substance: aminooxypentane (AOP)-RANTES (from UniProt P13501 24-91) (ligand)
